From patent US20050064507

Assays:
[1] = tested on: T1, ADD2 peptide KKKFRTPSFLKKSKK (SEQ ID NO:95)
T1 sequence: KKKFRTPSFLKKSKK

[2] = tested on: T2, ARHGAP6 peptide DGQKRKKSLRKKLD (SEQ ID NO:92)
T2 sequence: DGQKRKKSLRKKLD

[3] = tested on: T3, ARHGAP6 peptide SAQITIPKDGQKRKKSLRKK (SEQ ID NO:156)
T3 sequence: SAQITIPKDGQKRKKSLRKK

[4] = tested on: T4, ERN1 peptide ISDFGLAKKLAVGRHSFSRR (SEQ ID NO:145)
T4 sequence: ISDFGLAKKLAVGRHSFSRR

[5] = tested on: T5, FLJ20574 peptide GENVLKKSMKSRVKG (SEQ ID NO:113)
T5 sequence: GENVLKKSMKSRVKG

[6] = tested on: T6, MARCKS peptide PSPSNETPKKKKKRFSFKKS (SEQ ID NO:157)
T6 sequence: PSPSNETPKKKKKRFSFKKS

[7] = tested on: T7, MLK3 peptide QQVDRERPHVRRRRGTFKRS (SEQ ID NO:128)
T7 sequence: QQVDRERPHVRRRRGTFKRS

[8] = tested on: T8, Myt1 kinase peptide PPRTPGWHQLQPRRVSFRGE (SEQ ID NO:163)
T8 sequence: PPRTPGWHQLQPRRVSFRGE

[9] = tested on: T9, PARIS1 peptide EYLERRASRRRAV (SEQ ID NO:130)
T9 sequence: EYLERRASRRRAV

[10] = tested on: T10, PARIS1 peptide EYLERRASRRRAV (SEQ ID NO:138)
T10 sequence: EYLERRASRRRAV

[11] = tested on: T11, PKD1 peptide RVVQSVKHTKRKSSTVMK (SEQ ID NO:149)
T11 sequence: RVVQSVKHTKRKSSTVMK

[12] = tested on: T12, PLD1 peptide KYKAFIRIPIPTRRHTFRRQ (SEQ ID NO:161)
T12 sequence: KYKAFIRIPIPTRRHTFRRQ

[13] = tested on: T13, PLEK peptide KFARKSTRRSIRLPE (SEQ ID NO:78)
T13 sequence: KFARKSTRRSIRLPE

[14] = tested on: T14, PSCD2 peptide AARKKRISVKKKQEQ (SEQ ID NO:93)
T14 sequence: AARKKRISVKKKQEQ

[15] = tested on: T15, SDPR peptide EKIKRSSLKKVDSLKK (SEQ ID NO:104)
T15 sequence: EKIKRSSLKKVDSLKK

[16] = tested on: T16, SMARCA5 peptide MAQIERGEARIQRRISIKKA (SEQ ID NO:166)
T16 sequence: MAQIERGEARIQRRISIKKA

[17] = tested on: T17, dag kinase zeta peptide RPQNTLKASKKKKRASFKRK (SEQ ID NO:118)
T17 sequence: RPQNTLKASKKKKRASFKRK

[18] = tested on: T18, nuclear RNA export factor 3 peptide VRYTPYTISPYNRKGSFRKQ (SEQ ID NO:143)
T18 sequence: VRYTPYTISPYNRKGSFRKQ

[19] = tested on: T19, p164-RhoGEF peptide PRLIRRGSKKRPAR (SEQ ID NO:82)
T19 sequence: PRLIRRGSKKRPAR

[20] = tested on: T20, peptide AINSRETMFHKERFK (SEQ ID NO:67)
T20 sequence: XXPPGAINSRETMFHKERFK

[21] = tested on: T21, peptide AKNLKTLQKRDSFIG (SEQ ID NO:53)
T21 sequence: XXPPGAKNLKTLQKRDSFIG

[22] = tested on: T22, peptide DDMEHKTLKITDFG (SEQ ID NO:55)
T22 sequence: XXPPGDDMEHKTLKITDFG

[23] = tested on: T23, peptide EILSRRPSYRKILND (SEQ ID NO:25)
T23 sequence: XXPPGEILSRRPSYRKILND

[24] = tested on: T24, peptide ENLRKVTTDKKSLAY (SEQ ID NO:54)
T24 sequence: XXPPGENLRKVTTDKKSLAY

[25] = tested on: T25, peptide EYLERRASRRRAV (SEQ ID NO:14)
T25 sequence: XXPPGEYLERRASRRRAV

[26] = tested on: T26, peptide GENVLKKSMKSRVKG (SEQ ID NO:36)
T26 sequence: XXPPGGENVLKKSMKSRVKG

[27] = tested on: T27, peptide GQAWGRQSPRRLED (SEQ ID NO:46)
T27 sequence: XXPPGGQAWGRQSPRRLED

[28] = tested on: T28, peptide HERKGSDKRGDNQ (SEQ ID NO:70)
T28 sequence: XXPPGHERKGSDKRGDNQ

[29] = tested on: T29, peptide HVRRRRGTFKRSKLRARD (SEQ ID NO:1)
T29 sequence: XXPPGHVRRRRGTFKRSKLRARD

[30] = tested on: T30, peptide IKVTHKATGKVMVMK (SEQ ID NO:65)
T30 sequence: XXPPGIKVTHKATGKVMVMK

[31] = tested on: T31, peptide KATTKKRTLRKNDRK (SEQ ID NO:32)
T31 sequence: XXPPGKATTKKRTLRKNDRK

[32] = tested on: T32, peptide KEVVRTDSLKGRRGR (SEQ ID NO:30)
T32 sequence: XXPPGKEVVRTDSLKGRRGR

[33] = tested on: T33, peptide LALTARESSVRSGGAG (SEQ ID NO:69)
T33 sequence: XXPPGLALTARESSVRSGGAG

[34] = tested on: T34, peptide LLKKRDSFRTPRDSKLE (SEQ ID NO:22)
T34 sequence: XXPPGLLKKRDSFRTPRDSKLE

[35] = tested on: T35, peptide NRKKKRTSFKRKA (SEQ ID NO:3)
T35 sequence: XXPPGNRKKKRTSFKRKA

[36] = tested on: T36, peptide QKKSRLRRRASQLKI (SEQ ID NO:9)
T36 sequence: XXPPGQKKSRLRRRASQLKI

[37] = tested on: T37, peptide RKNDRKKRYTVVGNP (SEQ ID NO:29)
T37 sequence: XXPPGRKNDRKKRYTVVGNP

[38] = tested on: T38, peptide WKGKRRSKARKKRK (SEQ ID NO:13)
T38 sequence: XXPPGWKGKRRSKARKKRK

[39] = tested on: T39, pleckstrin 1 peptide KAIKAIEGGQKFARKSTRRS (SEQ ID NO:126)
T39 sequence: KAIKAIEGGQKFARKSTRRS

[40] = tested on: T40, slp4 peptide TYLLPDKSRQGKRKTSIKRD (SEQ ID NO:153)
T40 sequence: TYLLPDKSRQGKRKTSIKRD

In the case of PKC-delta, the in vitro phosphorylation (% of best substrate) [1] is reported as 25, the in vitro phosphorylation (% of best substrate) [2] is reported as 17 and the in vitro phosphorylation, 1 uM peptide (% of best substrate) [3] is reported as 29. The in vitro phosphorylation, 10 uM peptide (% of best substrate) [3] was 31, the in vitro phosphorylation, 1 uM peptide (% of best substrate) [4] was 34 and the in vitro phosphorylation, 10 uM peptide (% of best substrate) [4] was 23. For the same substance, the in vitro phosphorylation (% of best substrate) [5] was 4, the in vitro phosphorylation, 1 uM peptide (% of best substrate) [6] was 27 and the in vitro phosphorylation, 10 uM peptide (% of best substrate) [6] was 35. For the same substance, the in vitro phosphorylation, 1 uM peptide (% of best substrate) [7] was 46, the in vitro phosphorylation, 10 uM peptide (% of best substrate) [7] was 57 and the in vitro phosphorylation, 1 uM peptide (% of best substrate) [8] was 13. The in vitro phosphorylation, 10 uM peptide (% of best substrate) [8] was 21, the in vitro phosphorylation, 1 uM peptide (% of best substrate) [9] was 46 and the in vitro phosphorylation, 10 uM peptide (% of best substrate) [9] was 20. For the same substance, the in vitro phosphorylation, 1 uM peptide (% of best substrate) [10] was 49, the in vitro phosphorylation, 10 uM peptide (% of best substrate) [10] was 28 and the in vitro phosphorylation, 1 uM peptide (% of best substrate) [11] was 20. The in vitro phosphorylation, 10 uM peptide (% of best substrate) [11] was 17, the in vitro phosphorylation, 1 uM peptide (% of best substrate) [12] was 22 and the in vitro phosphorylation, 10 uM peptide (% of best substrate) [12] was 14. It also gave an in vitro phosphorylation (% of best substrate) [13] of 52, an in vitro phosphorylation (% of best substrate) [14] of 35 and an in vitro phosphorylation (% of best substrate) [15] of 10. The in vitro phosphorylation, 1 uM peptide (% of best substrate) [16] was 13, the in vitro phosphorylation, 10 uM peptide (% of best substrate) [16] was 29 and the in vitro phosphorylation, 1 uM peptide (% of best substrate) [17] was 73. For the same substance, the in vitro phosphorylation, 10 uM peptide (% of best substrate) [17] was 60, the in vitro phosphorylation, 1 uM peptide (% of best substrate) [18] was 33 and the in vitro phosphorylation, 10 uM peptide (% of best substrate) [18] was 32. The in vitro phosphorylation (% of best substrate) [19] was 40, the in vitro phosphorylation (% of best substrate) [20] was 1 and the in vitro phosphorylation (% of best substrate) [21] was 2. For the same substance, the in vitro phosphorylation (% of best substrate) [22] was 2, the in vitro phosphorylation (% of best substrate) [23] was 9 and the in vitro phosphorylation (% of best substrate) [24] was 2. For the same substance, the in vitro phosphorylation (% of best substrate) [25] was 20, the in vitro phosphorylation (% of best substrate) [26] was 4 and the in vitro phosphorylation (% of best substrate) [27] was 2. The in vitro phosphorylation (% of best substrate) [28] was 1, the in vitro phosphorylation (% of best substrate) [29] was 100 and the in vitro phosphorylation (% of best substrate) [30] was 1. For the same substance, the in vitro phosphorylation (% of best substrate) [31] was over 5, the in vitro phosphorylation (% of best substrate) [32] was 7 and the in vitro phosphorylation (% of best substrate) [33] was 1. For the same substance, the in vitro phosphorylation (% of best substrate) [34] was 12, the in vitro phosphorylation (% of best substrate) [35] was 66 and the in vitro phosphorylation (% of best substrate) [36] was 34. It also gave an in vitro phosphorylation (% of best substrate) [37] of 8, an in vitro phosphorylation (% of best substrate) [38] of 22 and an in vitro phosphorylation, 1 uM peptide (% of best substrate) [39] of 47. The in vitro phosphorylation, 10 uM peptide (% of best substrate) [39] was 43, the in vitro phosphorylation, 1 uM peptide (% of best substrate) [40] was 32 and the in vitro phosphorylation, 10 uM peptide (% of best substrate) [40] was 26.
